Experimental data reported in publication PMC6319916 (Biochemistry, 2018).

T1: 3-hydroxy-3-methylglutaryl coenzyme A reductase (DaHMGR) (Delftia acidovorans, UniProt A9BQX8)
T1 sequence (A9BQX8 1-429): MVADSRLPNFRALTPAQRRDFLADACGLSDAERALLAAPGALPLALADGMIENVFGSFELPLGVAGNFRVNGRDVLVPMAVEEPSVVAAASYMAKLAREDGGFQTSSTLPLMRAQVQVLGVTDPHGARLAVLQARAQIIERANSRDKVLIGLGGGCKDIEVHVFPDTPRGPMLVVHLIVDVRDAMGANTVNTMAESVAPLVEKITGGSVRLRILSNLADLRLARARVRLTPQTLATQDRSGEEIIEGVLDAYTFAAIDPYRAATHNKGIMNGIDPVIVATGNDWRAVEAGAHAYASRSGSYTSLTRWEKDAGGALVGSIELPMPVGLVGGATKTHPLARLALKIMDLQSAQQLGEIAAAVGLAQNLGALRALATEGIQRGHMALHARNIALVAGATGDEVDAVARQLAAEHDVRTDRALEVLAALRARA

B1: 3-hydroxy-3-methylglutaryl coenzyme A reductase (DaHMGR) (Delftia acidovorans SPH-1) (protein)
chain: T1 sequence (A9BQX8 1-429)

Tests used:
[1] = target: T1, 3-hydroxy-3-methylglutaryl coenzyme A reductase (DaHMGR); test: X-ray crystal structure; type: binding
purified protein = substrate: CC(C)(COP(=O)(O)OP(=O)(O)OC[C@H]1O[C@@H](n2cnc3c(N)ncnc32)[C@H](O)[C@@H]1OP(=O)(O)O)[C@@H](O)C(=O)NCCC(=O)NCCSC(=O)C[C@@](C)(O)CC(=O)O; test: purified protein; details: NADH

| Molecule | X-ray crystal structure (1.49 Å) [1] | Km (purified protein) [µM] | kcat (purified protein) [s⁻¹] | kcat/Km (purified protein) [M⁻¹ s⁻¹] |
| --- | --- | --- | --- | --- |
| C[C@@](O)(CCO)CC(=O)O [mevalonate] | in the mevalonate-bound DaHMGR structure, positive difference maps showed density in the active site, representing mevalonate binding | – | – | – |
| B1 | – | 7.34 ± 0.71 | 22.3 | 3.04e+06 |
